The values that follow come from article PMC12756740, “A GH42 β‑Galactosidase from the Human Isolate Bifidobacterium breve DSM 20213: Biochemical and Transgalactosylation Properties Reveal the Potential for Galacto-oligosaccharides Synthesis” (ACS Omega, 2025).

Substrate in the data set: O=[N+]([O-])c1ccccc1O[C@@H]1O[C@H](CO)[C@H](O)[C@H](O)[C@H]1O
Briefly: purified protein. The data set is classed as biochemical, Bifidobacterium breve. Particulars: 50 mM sodium phosphate pH 6.5, 30 °C, 0.01-22 mM oNPG.

For orientation: Km means the substrate concentration at which the rate is half of its maximum. One may read the Vmax as the top rate of the reaction or transport when substrate is in excess. In general, kcat refers to the number of substrate molecules converted per active site and unit of time at saturation. The kcat/Km is the second-order rate constant that governs catalysis at low substrate concentration.

B1: Bbreβgal-III (Bifidobacterium breve DSM 20213 = JCM 1192) (protein)
chain: MEHREFKWPQPLAGGKPRIWYGGDYNPDQWPEEVWDEDVALMQKAGVNLVSVAIFSWAKLEPEEGVYDFDWLDRVIDKLGKAGIAVDLASGTASPPMWMTQAHPEILWVDYRGDVCQPGARQHWRATSPVFLDYALNLCRKMAEHYKDNPYVVSWHVSNEYGCHNRFDYSEDAERAFQKWCEKKYGTIDAVNDAWGTAFWAQRMNNFSEIIPPRFIGDGNFMNPGKLLDWKRFSSDALLDFYKAERDALLEIAPKPQTTNFMVSAGGAGIDYDKWGYDVDFVSNDHYFTPGEAHFDELAYSASLCDGIARKNPWFLMEHSSSAVNWRPINYRVEPGELVRDSLAHLAMGSDAICYFQWRQSKAGAEKWHSSMVPHAGPDSQIFRDVCELGADLNKLADEGLLSTKLVKSKVAVVFDYESQWATEHTATPTQEVRHWTEPLAWFRALADNGLTADVVPVRGPWDEYEAVVLPSLTILSEETTRRVREYVANGGKLFVTYYTGLVDDKDHVWLGGYPGSIRDVVGVRVEEFAPMGNDFPGAIDHLDLDNGTVAHDFADVITSVADTAHVVAAFKADKWTGFDGAPAITVNDFGDGKAAYIGARLGREGLAKSLPALLEELGIETSAEDDRGEVLRVERADETGENHFVFLFNRTHDVAIVDVDGEPLVASLAQVNESEHTAAIQPNGVLVVKL
notes: pET21a(+) NdeI/NotI, His-tagged, E. coli BL21 Star (DE3), IMAC purified
For B1, the Km was determined as 1570 ± 160 µM, the Vmax is 3650 µmol/min/mg, the catalytic constant (kcat) was determined as 4690 ± 260 s⁻¹ and the kcat/Km was 2.99e+06 ± 140000 M⁻¹ s⁻¹.
